According to patent publication US20090047282:

Legend:
[1] = tested on: human Shh-N (cysteine residue at the 24th position up to the glycine residue at the 197th position of human Shh), E. coli recombinant, histidine tag excised with enterokinase
[2] = tested on: Shh-(24-45), 22-mer peptide of amino acids 24 to 45 of human Shh, biotin at the C-terminal lysine
Chain of Shh-(24-45), 22-mer peptide of amino acids 24 to 45 of human Shh, biotin at the C-terminal lysine (chain, as listed by the source): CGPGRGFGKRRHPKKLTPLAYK

Substance | radioactivity of [14C] palmitic acid in the band of Shh-N after SDS-PAGE (HHAT activity) [1] | radioactivity of [3H] palmitic acid added to the substrate peptide against the peptide's concentration (reaction time 1 hour) [2] | radioactivity of [3H] palmitic acid added to the substrate peptide against the reaction time (10 uM peptide) [2]
human HHAT (human hedgehog acyltransferase) with a C-terminal FLAG-Tag, crude enzyme solution from transfected HEK293 cells | Only when the human HHAT crude enzyme solution and the Shh-N were reacted, a band having a radioactivity was recognized in the vicinity of the molecular weight of 21 kDa corresponding to the Shh-N |  | 
human HHAT expressed with the Bac-to-Bac baculovirus system (HHAT enzyme solution of Example 5) |  | the activity was increased depending on the concentration (FIG. 3) | the activity was increased for 2 hours (FIG. 4)
